The test system of data set [1] is T1, MMP-cleavable crosslinker KLGPAK (Lys-Leu-Gly-Pro-Ala-Lys).
T1 sequence: KLGPAK

Data set [2] deals with T2, plasmin-cleavable crosslinker KNRVK (bisacryloylated Lys-Asn-Arg-Val-Lys).
T2 sequence: KNRVK

Chain of plasmin (P00747 20-580): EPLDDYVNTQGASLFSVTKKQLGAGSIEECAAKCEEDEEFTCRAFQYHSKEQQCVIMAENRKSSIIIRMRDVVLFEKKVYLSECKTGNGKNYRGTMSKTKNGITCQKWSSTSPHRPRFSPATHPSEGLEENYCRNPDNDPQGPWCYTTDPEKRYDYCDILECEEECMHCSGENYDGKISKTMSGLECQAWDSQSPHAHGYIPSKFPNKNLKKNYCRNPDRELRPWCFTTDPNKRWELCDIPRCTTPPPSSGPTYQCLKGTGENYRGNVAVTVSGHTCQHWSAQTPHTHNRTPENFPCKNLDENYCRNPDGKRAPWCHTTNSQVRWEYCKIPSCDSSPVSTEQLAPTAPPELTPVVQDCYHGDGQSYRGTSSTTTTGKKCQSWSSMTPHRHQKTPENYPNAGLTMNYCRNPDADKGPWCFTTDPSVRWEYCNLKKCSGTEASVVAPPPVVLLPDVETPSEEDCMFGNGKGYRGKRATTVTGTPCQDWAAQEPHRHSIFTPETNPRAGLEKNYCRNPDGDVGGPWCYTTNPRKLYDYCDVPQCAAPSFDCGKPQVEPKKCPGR
Chain of plasmin (P00747 581-810): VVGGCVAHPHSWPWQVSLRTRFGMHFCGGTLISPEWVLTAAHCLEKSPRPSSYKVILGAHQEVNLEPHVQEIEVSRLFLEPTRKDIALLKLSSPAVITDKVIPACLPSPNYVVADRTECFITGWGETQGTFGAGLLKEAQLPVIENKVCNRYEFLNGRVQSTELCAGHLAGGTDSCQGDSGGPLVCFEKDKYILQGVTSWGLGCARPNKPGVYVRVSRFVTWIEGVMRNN

“collagenase (a bacterial equivalent of MMP)”: the “degradation of the polymer shells of nBSALGPA (DLS)” value in data set [1] is “Exposing nBSALGPA to collagenase results in specific degradation of the polymer shells”. In addition, the “release of BSA from nBSANRV (SDS-PAGE, 30 min)” value in data set [2] is “nBSANRV without exposure to plasmin (line 2) or after exposure to collagenase (line 4) does not show any well-defined band”.

Take plasmin: the “release of BSA from nBSALGPA (SDS-PAGE, 30 min)” value in data set [1] is “plasmin is incapable of triggering release of BSA from MMP-specific nBSALGPA”. In addition, in data set [2], the “VEGF released from nVEGF formed with 100% degradable crosslinker (ELISA, with plasmin)” value is “released 95% of the VEGF used to form the nanocapsules”; the “release of BSA from nBSANRV (SDS-PAGE, 30 min)” value was “does exhibit a well-defined band (line 3) similar to that of native BSA upon exposure to plasmin”; the “release percentage of VEGF from de-nVEGFplasmin (100%-peptide crosslinker) (ELISA)” value is given as “plasmin-incubated nVEGF showed about 60% release percentage”.

As to trypsin, the “release of VEGF from de-nVEGFplasmin (100%-peptide crosslinker) (ELISA)” value in data set [2] was “only extended periods of incubation with trypsin and collagenase IV had releases of VEGF”.

The record behind these values is patent publication US9993440.
